In patent publication US20260242485A1:

What was measured:
[1] = molecular target: human CD16B-NA1 expressed on CHO-K1 cells (human) (UniProt O75015); assay: flow cytometry, CHO-K1-hCD16B-NA1 cells, geometric mean
[2] = molecular target: human CD32B expressed on CHO-K1 cells (human) (UniProt P31994); assay: flow cytometry, CHO-K1-hCD32B cells, geometric mean
Sequence of human CD32B expressed on CHO-K1 cells (human) (P31994 43-310): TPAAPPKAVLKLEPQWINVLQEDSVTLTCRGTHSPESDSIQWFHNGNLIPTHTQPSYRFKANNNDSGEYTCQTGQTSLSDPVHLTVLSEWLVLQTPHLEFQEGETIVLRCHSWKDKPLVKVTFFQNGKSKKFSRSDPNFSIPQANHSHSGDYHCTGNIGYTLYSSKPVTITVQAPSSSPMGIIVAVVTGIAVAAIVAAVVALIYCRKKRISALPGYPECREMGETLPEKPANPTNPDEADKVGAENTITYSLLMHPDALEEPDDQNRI

Sequence of human CD16B-NA1 expressed on CHO-K1 cells (human) (O75015 other isoform, or with tags, fused parts or gaps): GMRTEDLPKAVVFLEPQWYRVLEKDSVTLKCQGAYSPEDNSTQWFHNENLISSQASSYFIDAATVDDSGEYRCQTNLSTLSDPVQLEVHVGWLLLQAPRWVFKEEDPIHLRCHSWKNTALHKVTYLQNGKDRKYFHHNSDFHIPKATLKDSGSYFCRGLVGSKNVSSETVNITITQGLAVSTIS

EC50 (read off the curve) [1] [nM] | EC50 (read off the curve) [2] [nM] | Substance
0.1 to 1 |  | 3G8-mIgG2aLALAPG (antibody)
 | 0.1 | Positive control (6G11) (antibody)
0.1 |  | Positive control (3G8) (antibody)
